Results taken from patent publication US20040259798A1.
Bridge positions count the residues as written; N and C are the ends. Ends that are not written are not given here.

Experiments:
[1] = target: β2 integrins on THP-1 cells; experiment: inhibition of THP-1 cell adhesion to coated von Willebrand factor, phosphatase assay
[2] = target: β2 integrins on THP-1 cells; experiment: inhibition (partial) of THP-1 cell adhesion to coated type IV collagen, phosphatase assay
[3] = target: β2 integrins on THP-1 cells; experiment: inhibition of THP-1 cell adhesion to coated LLG-C4-GST, phosphatase assay
[4] = target: β2 integrins on THP-1 cells; experiment: inhibition of THP-1 cell adhesion to coated LLG-C4-GST

| Binder | IC50 [1] | IC50 [2] | IC50 [3] | fold less active than C(1-8;3-9) [4] |
| --- | --- | --- | --- | --- |
| CPCFLLGCC (disulfide 1-8, 3-9) [C(1-8;3-9) peptide] | 20 µM | 200 µM | 20 µM | – |
| CPCFLLGCC (disulfide 1-9, 3-8) [C(1-9;3-8) peptide] | – | – | – | 20 fold |
